T1: ALPL on HeLa cells (Homo sapiens, UniProt P05186)
T1 construct: knockdown endogenous levels of ALPL in HeLa cells; endogenous in cells; host or cells: HeLa
T1 sequence (P05186 18-501): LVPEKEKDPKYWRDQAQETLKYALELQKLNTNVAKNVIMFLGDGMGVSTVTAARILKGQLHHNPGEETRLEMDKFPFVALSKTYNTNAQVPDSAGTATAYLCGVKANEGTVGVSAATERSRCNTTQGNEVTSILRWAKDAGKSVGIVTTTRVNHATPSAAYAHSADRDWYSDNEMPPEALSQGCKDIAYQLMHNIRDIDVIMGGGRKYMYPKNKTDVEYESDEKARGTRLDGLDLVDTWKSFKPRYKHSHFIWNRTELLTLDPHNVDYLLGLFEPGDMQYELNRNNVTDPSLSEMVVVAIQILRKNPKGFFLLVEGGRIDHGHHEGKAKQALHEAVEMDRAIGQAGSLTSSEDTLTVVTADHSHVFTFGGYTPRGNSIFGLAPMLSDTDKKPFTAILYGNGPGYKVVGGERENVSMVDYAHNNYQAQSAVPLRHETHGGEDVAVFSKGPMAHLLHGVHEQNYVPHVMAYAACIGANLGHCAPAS

T2: His-tagged ALPL (Homo sapiens, UniProt P05186)
T2 sequence (P05186 18-501): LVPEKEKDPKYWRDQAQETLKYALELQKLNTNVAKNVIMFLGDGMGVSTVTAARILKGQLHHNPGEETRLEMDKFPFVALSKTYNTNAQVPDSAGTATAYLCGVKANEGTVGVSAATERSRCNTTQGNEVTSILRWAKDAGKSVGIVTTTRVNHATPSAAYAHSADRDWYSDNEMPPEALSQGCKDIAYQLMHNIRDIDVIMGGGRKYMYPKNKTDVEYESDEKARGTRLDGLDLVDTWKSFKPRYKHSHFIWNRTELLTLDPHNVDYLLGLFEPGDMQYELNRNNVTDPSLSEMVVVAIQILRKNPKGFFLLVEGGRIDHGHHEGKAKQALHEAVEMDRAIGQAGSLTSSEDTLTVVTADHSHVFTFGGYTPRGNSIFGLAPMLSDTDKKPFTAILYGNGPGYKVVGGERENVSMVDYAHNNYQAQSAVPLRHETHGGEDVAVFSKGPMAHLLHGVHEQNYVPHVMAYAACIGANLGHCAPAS

B1: TTM-001: AAV9 capsid variant comprising SPHSKA (SEQ ID NO: 941) in loop IV (protein)
chain 1: MAADGYLPDWLEDNLSEGIREWWALKPGAPQPKANQQHQDNARGLVLPGYKYLGPGNGLDKGEPVNAADAAALEHDKAYDQQLKAGDNPYLKYNHADAEFQERLKEDTSFGGNLGRAVFQAKKRLLEPLGLVEEAAKTAPGKKRPVEQSPQEPDSSAGIGKSGAQPAKKRLNFGQTGDTESVPDPQPIGEPPAAPSGVGSLTMASGGGAPVADNNEGADGVGSSSGNWHCDSQWLGDRVITTSTRTWALPTYNNHLYKQISNSTSGGSSNDNAYFGYSTPWGYFDFNRFHCHFSPRDWQRLINNNWGFRPKRLNFKLFNIQVKEVTDNNGVKTIANNLTSTVQVFTDSDYQLPYVLGSAHEGCLPPFPADVFMIPQYGYLTLNDGSQAVGRSSFYCLEYFPSQMLRTGNNFQFSYEFENVPFHSSYAHSQSLDRLMNPLIDQYLYYLSKTINGSGSPHSKAQNQQTLKFSVAGPSNMAVQGRNYIPGPSYRQQRVSTTVTQNNNSEFAWPGASSWALNGRNSLMNPGPAMASHKEGEDRFFPLSGSLIFGKQGTGRDNVDADKVMITNEEEIKTTNPVATESYGQVATNHQSAQAQAQTGWVQNQGILPGMVWQDRDVYLQGPIWAKIPHTDGNFHPSPLMGGFGMKHPPPQILIKNTPVPADPPTAFNKDKLNSFITQYSTGQVSVEIEWELQKENSKRWNPEIQYTSNYYKSNNVEFAVNTEGVYSEPRPIGTRYLTRNL
chain 2: GSGSPHSKAQNQQT
B2: TTM-002: AAV9 capsid variant comprising HDSPHK (SEQ ID NO: 2) in loop IV (protein)
chain 1: MAADGYLPDWLEDNLSEGIREWWALKPGAPQPKANQQHQDNARGLVLPGYKYLGPGNGLDKGEPVNAADAAALEHDKAYDQQLKAGDNPYLKYNHADAEFQERLKEDTSFGGNLGRAVFQAKKRLLEPLGLVEEAAKTAPGKKRPVEQSPQEPDSSAGIGKSGAQPAKKRLNFGQTGDTESVPDPQPIGEPPAAPSGVGSLTMASGGGAPVADNNEGADGVGSSSGNWHCDSQWLGDRVITTSTRTWALPTYNNHLYKQISNSTSGGSSNDNAYFGYSTPWGYFDFNRFHCHFSPRDWQRLINNNWGFRPKRLNFKLFNIQVKEVTDNNGVKTIANNLTSTVQVFTDSDYQLPYVLGSAHEGCLPPFPADVFMIPQYGYLTLNDGSQAVGRSSFYCLEYFPSQMLRTGNNFQFSYEFENVPFHSSYAHSQSLDRLMNPLIDQYLYYLSKTINGHDSPHKSGQNQQTLKFSVAGPSNMAVQGRNYIPGPSYRQQRVSTTVTQNNNSEFAWPGASSWALNGRNSLMNPGPAMASHKEGEDRFFPLSGSLIFGKQGTGRDNVDADKVMITNEEEIKTTNPVATESYGQVATNHQSAQAQAQTGWVQNQGILPGMVWQDRDVYLQGPIWAKIPHTDGNFHPSPLMGGFGMKHPPPQILIKNTPVPADPPTAFNKDKLNSFITQYSTGQVSVEIEWELQKENSKRWNPEIQYTSNYYKSNNVEFAVNTEGVYSEPRPIGTRYLTRNL
chain 2: GHDSPHKSGQNQQT

How the values were obtained:
[1] = molecular target: T1, ALPL on HeLa cells; assay: Transduction of HeLa cells after blocking with an anti-ALPL antibody; format: cell-based; details: for Transduction in Hela cells as measured by luciferase assay (RLU): 1E4 VG/cell
Method: Following incubation, the cells were transduced with 1E4 VG/cell of AAV particles comprising the TTM-002 capsid variant or an AAV9 control expressing a GFP-luciferase payload. After a 4 hour incubation period the AAV and media were removed and replaced with fresh media and luciferase activity was measured (RLU) 24 hours post transduction.

[2] = molecular target: T2, His-tagged ALPL; assay: SPR (Biacore 8K) binding of capsids to ALPL; details: for binding to ALPL by SPR: AAV 0.0625 to 1 nM over ALPL, or ALPL 15.625 to 250 nM over capsid
Method: Direct binding and specific interaction of the TTM-002 capsid variant and the AAV9 capsid control to ALPL was measured by Surface Plasmon Resonance (SPR) on a Biacore 8K instrument. His-tagged ALPL was first captured on a CM5 sensor chip pre-immobilized with anti-His antibody by passing 5 μg/ml of ALPL for 240 seconds (FIGS. 2A-2B). AAV9 or TTM-002 and buffer were then passed over ALPL to monitor rates of association and dissociation, respectively. […] The surface was regenerated using two pulses of 10 mM glycine pH 1.7 for 30 seconds. A flow rate of 30 μl/min was used for all steps and the running buffer used was PBS-P+. In a second experiment, the AAV9 control or TTM-002 capsid variant were immobilized on the CM5 sensor chip (FIGS. 2C-2D). His-tagged ALPL and buffer were then passed over the AAV9 control or TTM-002 capsid variant to monitor rates of association and dissociation. The concentration of ALPL used was from 15.625 to 250 nM (e.g., 15.625 nM, […], 62.5 nM, 125 nM, and 250 nM; FIGS. 2C-2D).
For this experiment, the density of TTM-002 on the chip was approximately 6300RU.
Additional experiments were performed varying the density of the TTM-002 capsid variant on the chip. His-tagged ALPL and buffer were then passed over the AAV9 control or TTM-002 capsid variant to monitor rates of association and dissociation.

[3] = system: HEK 293T cells transfected with pCMV6 negative control; assay: Binding and internalization assay in HEK 293T cells transfected with pCMV6 negative control (viral genomes); format: cell-based; details: pCMV6 transfected cells (negative control, reference)
Method: Binding and internalization of AAV capsid variants comprising the TTM-001 capsid variant, the TTM-002 capsid variant, or the AAV9 control capsid was also investigated in cells engineered to express ALPL. HEK 293T cells were transfected via calcium phosphate transfection with a plasmid expressing ALPL, an AAVR positive control, or a pCMV6 negative control. At 24 hours post-transfection, the HEK 293T cells expressing the ALPL receptor were incubated with an AAV particle comprising the TTM-001 capsid variant, the TTM-002 capsid variant, or an AAV9 control capsid protein, expressing a GFP payload. At 2 or 3-hours post-incubation, cells were washed to remove unbound AAV particles and DNA was extracted to quantify viral genomes.

[4] = IgG isotype control 3.125 μg/mL
[5] = TTM-002 on chip approximately 6300RU

| Molecule | Transduction in Hela cells as measured by luciferase assay (RLU) ([1]; Anti-ALPL antibody 0 μg/mL) | Transduction in Hela cells as measured by luciferase assay (RLU) ([1]; Anti-ALPL antibody 3.125 μg/mL) | Transduction in Hela cells as measured by luciferase assay (RLU) ([1]; Anti-ALPL antibody 6.25 μg/mL) | Transduction in Hela cells as measured by luciferase assay (RLU) ([1]; Anti-ALPL antibody 12.5 μg/mL) | Transduction in Hela cells as measured by luciferase assay (RLU) ([1]; IgG isotype control 0 μg/mL) | Transduction in Hela cells as measured by luciferase assay (RLU) [1, 4] | Transduction in Hela cells as measured by luciferase assay (RLU) ([1]; IgG isotype control 6.25 μg/mL) | Transduction in Hela cells as measured by luciferase assay (RLU) ([1]; IgG isotype control 12.5 μg/mL) | binding to ALPL by SPR [2] | Fold change in viral gene expression (2^-ΔΔCT) relative to pCMV6 transfected cells [3] | transduction in the presence of anti-ALPL antibody vs isotype control ([1]; HeLa, 0-12.5 μg/mL antibody) | koff ([2]; Density of TTM-002 127 RU on chip) | koff ([2]; Density of TTM-002 2400 RU on chip) | koff ([2]; Density of TTM-002 6300 RU on chip) | koff ([2]; Density of TTM-002 6680 RU on chip) | koff [2, 5] | kon [2, 5] |
| --- | --- | --- | --- | --- | --- | --- | --- | --- | --- | --- | --- | --- | --- | --- | --- | --- | --- |
| AAV9: wild-type AAV9 control capsid [reference compound] | 530.67 RLU | 527.33 RLU | 451.67 RLU | 417.33 RLU | 433.33 RLU | 457.67 RLU | 516.33 RLU | 551.33 RLU | no binding |  |  |  |  |  |  |  |  |
| B1 |  |  |  |  |  |  |  |  |  | 1 fold |  |  |  |  |  |  |  |
| B2 | 4701 RLU | 5042.67 RLU | 5220 RLU | 5556.67 RLU | 4113.33 RLU | 527.33 RLU | 186.67 RLU | 136 RLU | capable of directly and specifically binding to ALPL in a dose dependent manner | 1 fold | decreased TTM-002 transduction in a dose dependent manner | 0.0051 s⁻¹ | 0.00185 s⁻¹ | 0.00127 s⁻¹ | 0.00116 s⁻¹ | 0.00127 s⁻¹ | 32000 M⁻¹ s⁻¹ |

Source: patent US20260250318A1, “COMPOSITIONS AND METHODS FOR CROSSING THE BLOOD BRAIN BARRIER” (VOYAGER THERAPEUTICS, INC., priority 2022, published 2026)
